Test [1] concerns SKNMC-IGF2^1-67 xenografts. In words: IGF2 dependent human cancer cell xenografts. The class given is in vivo, mouse. The following applies: for Xenograft growth: CD-1 nude mice, 40 mg kg-1 per week by osmotic mini-pump. The text has this: IGF2 sensitive autocrine cell line SKNMC-IGF2^67 was generated from the Ewing sarcoma cell line SKNMC by retroviral infection with constructs containing IRES-luciferase. Autocrine growth and signalling function of the SKNMC line, including inhibition by IGF2-TRAP, was confirmed in culture using an MTS reagent (Cell Titer 96 Aqueous One Solution cell proliferation assay, Promega). For xenografts, approximately 5×10^6 SKNMC-IGF2^67 cells harvested during the growth phase of sub-confluent cell cultures were then mixed with matrigel (50:50 v/v, 100 μl/mouse) and injected (sub-cutaneous) into CD-1® (Crl:NU-1 Foxn1nu) female mice, 24 hours after establishing ALZET® mini-pump placement delivering a single concentration 40 mg kg-1 per week either IGF2-TRAP or PBS vehicle control. Tumour growth was monitored with both caliper measurements and bioluminescence. The latter was performed with a Bruker Xtreme 2D optical system 15 minutes (10 second exposure) following luciferin injection (100 μl per 20 g body weight). Tumours were excised at 28 days or when size was >1000 mm3. Fixation in formalin, embedding in paraffin and Hematoxylin and Eosin (H&E) staining was done using standard protocols. Apoptotic area was quantified using automated image analysis of brightfield images in ImageJ, applying H AEC color deconvolution filter and automated thresholding. Serum was also collected at the time of culling.

The target in the next test is T1, IGF2^1-67 (Homo sapiens, UniProt P01344).
T1 construct: Recombinant mature (IGF2^1-67 [7.5 kDa]
In words: SPR of IGF forms on Fc-domain 11 proteins immobilised by antibody capture. The following applies: HBS-EP pH 7.4. The class given is binding. How it is done:
(§1) SPR analysis of the interaction of recombinant IGF1 and IGF2 forms with Fc-domain 11 proteins immobilised by antibody capture (CM5 chip containing monoclonal mouse anti-human IgG antibody immobilised by amine coupling). Measurements were carried out at 25° C. in HBS-EP buffer (pH 7.4).
(§2) Final kinetic analysis of mutants by SPR was conducted using a Biacore T200 biosensor at 25° C. in either HBS-EP (10 mM HEPES pH 7.4, 150 mM NaCl, 3 mM EDTA, and 0.005% (v/v) surfactant P20) or MES-EP (20 mM MES pH 6.5, 150 mM NaCl, 3 mM EDTA, and 0.005% (v/v) surfactant P20) at a flow-rate of 40 μL min^−1. […] For the analysis of the Fc-domain 11^AB5 interaction, approximately 50 RU of a biotinylated IGF2:biotinylated ubiquitin mixture (1:8 proportion) was immobilized on the CM5-streptavidin chip. This interaction was also analysed by immobilizing the Fc-domain 11^AB5 and Fc-domain 11^AB5-RHH (or Fc-domain 11^I1572A as control) by Human Antibody Capture (monoclonal mouse anti-human IgG antibody immobilised on a CM5 chip by amine coupling, GE Healthcare) with and without human IgG1 Fc fragment (Bethyl Laboratories, UK) in the control flow cell. Increasing concentrations of IGF2^1-67, proIGF2^1-104, proIGF2^1-156 and IGF1 ranging from 0.125 to 32 nM were injected. T200 BiaEvaluation software (GE Healthcare) was used to fit the resulting curves according to a 1:1 binding model. Steady state affinities were determined using the kinetic data, taking the response average at 5 seconds before injection end and for 5 seconds average. Thermodynamic data was performed across the temperature range of 10° C. to 30° C., van't Hoff and Erying plots generated and ΔH, −TΔS and ΔG values determined as previously described.

The target in another test is T2, IGF2^1-104 (Homo sapiens, UniProt P01344).
T2 construct: pro-IGF2 (pro-IGF2^1-104 [11 kDa]
The test is described as above. The class given is binding. The following applies: HBS-EP pH 7.4. How it is done:
as §1, §2

Another test addresses T3, IGF2^1-156 (Homo sapiens, UniProt P01344).
T3 construct: pro-IGF2^1-156 [17 kDa]
The test is described as above. Type of test: binding. How it is done: as §1, §2

Marks after values point to notes of the source that are not given here.

T1 sequence (P01344 25-91): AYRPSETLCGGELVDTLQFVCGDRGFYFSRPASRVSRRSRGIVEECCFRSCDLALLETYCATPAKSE
T3 sequence (P01344 25-180): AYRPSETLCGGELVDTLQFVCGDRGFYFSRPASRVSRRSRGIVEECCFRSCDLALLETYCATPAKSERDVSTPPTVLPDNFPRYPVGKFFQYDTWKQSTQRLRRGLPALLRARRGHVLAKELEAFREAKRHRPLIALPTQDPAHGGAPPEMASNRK
T2 sequence (P01344 25-128): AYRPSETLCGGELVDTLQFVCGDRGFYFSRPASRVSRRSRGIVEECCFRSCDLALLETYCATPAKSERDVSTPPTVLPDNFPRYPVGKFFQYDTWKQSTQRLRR

B1: Fc-domain 11^AB5-RHH: Fc-fusion of domain 11^AB5-RHH (IGF2-TRAP); IgG2 Fc form purified from CHO cells used for xenografts (protein)
chain: NEHDDCQVTNPSTGHLFDLSSLSGRAGFTAAYAKGWGVYMSICGENENCPPGVGACFGRTRISVGKANKRLRYVDQVLQLVYKDGSHCPSKHGLSYKSVISFVCRPEAGPTNRPMLISLDKQTCTLFFSWHTPLACEQAT
modifications: left off: a dimerising Fc or GST
notes: Fc-fusion of domain 11^AB5-RHH (IGF2-TRAP); IgG2 Fc form purified from CHO cells used for xenografts
B1: the Xenograft growth entry in test [1] (listed as Fc-domain 11AB5-RHH) is “Reduced xenograft growth rates”; in test [1] (listed as IGF2-TRAP), “reduces IGF2 dependent xenograft growth”. Also, the “Total serum IGF1, Growth Hormone or IGFBP levels” value in test [1] (Day 28) is “without alteration”. For the same molecule, the “Serum IGF2” value in test [1] (Day 28, listed as Fc-domain 11AB5-RHH) was “less evident”; in test [1] (Day 28, listed as IGF2-TRAP), “reduced levels of serum IGF2”. Also, the Kinetics koff in the test with IGF2^1-67 was found to be 0.0014 s⁻¹; in the test with IGF2^1-104, 0.0005 s⁻¹; with IGF2^1-156 (HBS-EP pH 7.4), 0.0003 s⁻¹. Besides, the Kinetics kon was 2.6e+06 M⁻¹ s⁻¹ with IGF2^1-67, 1.29e+06 M⁻¹ s⁻¹ in the test with IGF2^1-104 and 0.23* ×10^6 M^−1s^−1 with IGF2^1-156 (may be inaccurate (mixture of three isoforms)).

The values above are taken from patent publication US10494415B2, “Insulin-like growth factor 2 (IGF2) binding agents” (Cancer Research Technology Limited, priority 2015, dated 2019).
